Biological target: human CD33 (human) (UniProt P20138)
Assay: cell-based or functional assay

Sequence of UniProt P20138 (P20138 18-364 limits assumed): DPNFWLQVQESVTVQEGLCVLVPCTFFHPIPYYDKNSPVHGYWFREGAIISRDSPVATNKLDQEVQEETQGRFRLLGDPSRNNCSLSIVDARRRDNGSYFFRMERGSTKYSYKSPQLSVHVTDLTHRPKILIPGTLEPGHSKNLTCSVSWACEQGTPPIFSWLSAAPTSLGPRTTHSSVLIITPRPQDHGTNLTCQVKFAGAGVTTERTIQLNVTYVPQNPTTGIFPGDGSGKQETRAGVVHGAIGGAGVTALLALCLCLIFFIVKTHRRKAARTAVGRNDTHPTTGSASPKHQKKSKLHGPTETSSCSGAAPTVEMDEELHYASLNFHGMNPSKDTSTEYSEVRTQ

Substance: Lintuzumab conjugated with Actinium-225 (Ac225) (antibody)
- LD50 (dose at which 50% of the cells were killed), cytotoxicity on HL60 leukemia cell suspensions: 8 pCi per mL
